Source: the supplement of paper PMC9170038

Tested on: K4 kissing-loop RNA reporter
Assay: apparent KD of K4 kissing-loop reporter; higher = weaker reporter binding
Details: Eterna round: R107
Procedure: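 RNA-MaP round R107: designed RNA switches with theophylline, tryptophan, arginine or FMN aptamers are transcribed on-chip within common flanks. They are titrated with a labelled K4 kissing-loop RNA reporter in RNA-MaP buffer (100 mM Tris pH 7.5, 80 mM KCl, 4 mM MgCl2), without ligand or with the indicated ligand. Median apparent KD per design.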

[1] = input ligand: theophylline 20 uM
[2] = input ligand: tryptophan 2.4 mM
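Further: bound reporter read as fluorescence of individual clusters on recovered sequencing chips by microscopy, with normalized cluster intensities fitted with a binding model.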

Row | Sequence | apparent KD of K4 kissing-loop reporter (input ligand: FMN 200 uM) [µM] | apparent KD of K4 kissing-loop reporter (input ligand: arginine 13.2 mM) [µM] | apparent KD of K4 kissing-loop reporter (input ligand: none) [µM] | apparent KD of K4 kissing-loop reporter [1] [µM] | apparent KD of K4 kissing-loop reporter [2] [µM]
1 | UGGACGAAUAUCGAUAAGAUAUUCUGGGAUACCAGUGACGAAAGUCACCCUUGGCAGCUCAACUGCCAGUGAUGUUGGUAGUCCA [Astros-Elo-mod#3] | 0.238 | 0.142 | 0.218 | 0.162 | 0.165
2 | UGGAGUUGACGAAAAGUCAACUCCCGAGAAGGAGCGGACGAAAGUCCAGGUAGGUCGCUCGCUACCAGUGAUGUUGGUACUGAAA | 0.125 | 0.18 | 0.126 | 0.16 | 0.105
3 | UGGAUAUCGUUUAGUCUGGUGAGCUCAGAUACCAGACUAGCGAUGGUCCCUUGGCAGCUGAUUACGAUUGAGUGAUGUUCAAUCG [Theo A Ex t9c] | 0.168 | 0.152 | 0.172 | 0.16 | 0.158
4 | UGGCCUUAAAUUCUAGGAUUAGCGACGUACAAGGAUAUUCGUCAUCGAAGAAGGUGUAGCUAGGAGAGUGAUGUUUUCCAUCGCC [theeternabot_sameState_KL_FMN_A_15] | 0.64 | 0.449 | 0.549 | 0.576 | 0.504
5 | UGGCGUUGAACCGCCGAAUCGCUGUGAGAAGGAGCGGUAAAAUUGCCAGGUAGGUCGCUCACAGCUUCACAGUGAUGUUGUGGAA [Enxeisen] | 0.248 | 0.161 | 0.408 | 0.212 | 0.188
6 | UGGGAUUUGUCAGGAUAUGAGUGCAGUGAUGUUGCACUUAAUAAAGUACAUAGGCCCUGCUGGCACUCAGAAGGGACGGUGAUGC [Lalasobeer] | 0.122 | 0.0736 | 0.103 | 0.0867 | 0.0924
7 | UGUACAUGUCACCGAGUGAUGUUCGACGAUACCAGACUCGAUAGAGUCCCUUGGCAGCGUAACGCAUGCCAAAGUGGCAUGUACU [#SwitchBubble 10 #K4Early] | 0.925 | 0.521 | 0.721 | 0.496 | 0.598
8 | UGUACAUGUCAGCGAGUGAUGUUCGACGAUACCAGACUCGAUAGAGUCCCUUGGCAGCGUAACGCAUGCCAAACUGGCAUGUACU [#SwitchBubble 9 #K4Early] | 0.789 | 0.819 | 1.12 | 0.646 | 0.773
9 | UGUACCGAGUCAGGAUAUCAAAAUAAUUGGAGUGAUGUUCCAAAUACGACUGACAAAGUCGGUCGAUGAGAAGGGACUUGGUACU [FmnBS 11 #SwitchBubble #StaticStem] | 0.118 | 0.122 | 0.122 | 0.163 | 0.114
10 | UGUACCGAGUCAGGAUAUGACGACUAGUCAAAGACUGGUCGAAAAUCCAGUGAUGUUGGAAAUAAAUCAGAAGGGACUUGGUACU [FmnBS 16 #SwitchBubble #StaticStem] | 0.124 | 0.309 | 0.272 | 0.357 | 0.296
11 | UGUACCGAGUCAGGAUAUGGCGUCGAAAGACGAAAACCAGUGAUGUUGGAAAUCUGCGAAAGCAGUCCAGAAGGGACUUGGUACU [FmnBS 25 #SwitchBubble #StaticStem #DoubleMagnetSystem] | 0.199 | 0.233 | 0.266 | 0.251 | 0.251
12 | UGUACCGAGUCAGGAUAUGGCGUCGAAAGACGAAACCAGUGAUGUUGGAAUAUCGACGAAAGUCGUCCAGAAGGGACUUGGUACU [FmnBS 17 #SwitchBubble #StaticStem #DoubleMagnetSystem] | 0.153 | 0.264 | 0.256 | 0.264 | 0.273
13 | UGUACCGAGUUAGGAUAUGUCGUCGAAAGACGAAAUGGAGUGAUGUUCCUUAAACUGCGAAAGCAGACAGAAGGGACUUGGUACU [FmnBS 29 U11] | 0.233 | 0.473 | 0.474 | 0.493 | 0.429
14 | UGUACCGAUUCAGGAUAUGUCGUCGAAAGACGAAAUGGAGUGAUGUUCCUUAAACUGCGAAAGCAGACAGAAGGGAAUUGGUACU [FmnBS 29 U9+A77] | 0.146 | 0.285 | 0.3 | 0.318 | 0.284
15 | UGUAUAGUCAGAAGGAGCGUGAACGAUCGAGAAUCGAUCAGCCAGUGAUGUUGGCAGGAAUCACAGGUAGGUCGCUGACUGUACA [Arg B SS t3] | 0.237 | 0.208 | 0.258 | 0.24 | 0.208
16 | UGUAUGGACUGAAGGAGCGGUAGAUAAACUGAGUGAUGUUCGGCAGAUAAAGGCGCAAGCCACCAGGUAGGUCGCAGUCCAUACU [KL-SSArg B3] | 0.381 | 0.274 | 0.391 | 0.408 | 0.342

Row | Sequence | apparent KD of K4 kissing-loop reporter (input ligand: FMN 200 uM) [µM] | apparent KD of K4 kissing-loop reporter (input ligand: arginine 13.2 mM) [µM] | apparent KD of K4 kissing-loop reporter (input ligand: none) [µM] | apparent KD of K4 kissing-loop reporter [1] [µM] | apparent KD of K4 kissing-loop reporter [2] [µM]
17 | UGUAUGUGAUUUGAUACCAGACCAGCUGGUGGUGUAUGAGUGAUGUUCAUGUUGGUUUGGGUCCCUUGGCAGCAAAUCGCAUACU [KL-SSTheoB30] | 0.0145 | 0.0074 | 0.0118 | 0.00888 | 0.0117
18 | UGUCAUUGGUCGGCCGCCACUAGGACCGGGACUUCUCUAGUGAUGUUAGUCUGGUCGGCCGCCACUAGGACCGGGACCGAUGACU [KL-SSTryp-B14 #DoubleAptamer] | 0.561 | 0.368 | 0.671 | 0.327 | 0.103
19 | UGUGGAGGAUAUGAUACCAGCAGUGAGAGAGAGGAAGUAUAGUGAUGUUAUAUGAGAGAAUGCCCUUGGCAGCGUAUGUAGUAGG [SSTheophylB.I] | 0.27 | 0.21 | 0.218 | 0.208 | 0.191
20 | UGUGGUGUAUCCUUUAGGAGUGAUGUUUUUCGAGGACCGGUACGGCCGCCACUCGAGUGAUGAGAGCGUCGUUGUGGUGGUUUGU [#16 K4 Tryptophan A Exclusion] | 1.06 | 0.698 | 1.19 | 0.697 | 0.73
21 | UGUGUUGUUGUGAUGUUUGGUGUUGCAGGGCAGGAUAUCGUAGAGGCGAGAAGGGCUUUUGUGCGGUAUGAGUGAUGUUUGUAGG [rrcgsmullin] | 0.197 | 0.218 | 0.27 | 0.369 | 0.25
22 | UGUGUUUACCUGACUCAGUGAUGUUGAGAAGGAGCGUGCAAAAGCACAGGUAGGUCGCUCAACCUAAAUUCAGGUGAGCACUAAA | 0.271 | 0.201 | 0.255 | 0.252 | 0.264
23 | UGUGUUUACCUGACUCAGUGAUGUUGAGAAGGAGCGUGCAAAGGCACAGGUAGGUCGCUCAACCUAAAUUCAGGUGAGCACUAAA | 0.246 | 0.331 | 0.24 | 0.31 | 0.217
24 | UGUUGAGUGAUGUUCGAUGUAGUUCAUUCAGAGGAUAUAGGGUGGGCUAGAAGGCUGAAAAGUGCUUCGAGUGAUGUUCGAAGAU [Exclusion FMN A GF 7] | 0.0773 | 0.0777 | 0.0993 | 0.0895 | 0.0911
25 | UUACGCGGCAUAGAUACCAGCAAUGCAGGAUAGGUCAAGAGUGAUGUUCUGAUACUUGGGUGCCCUUGGCAGCUAGACGAUAACA [theeternabot_sameState_KL_Theo_B_46] | 0.479 | 0.449 | 0.521 | 0.412 | 0.308
26 | UUAGAAGUAUACUUCAAGAGCUAUACUGAUACCAGAGUCAAUUGACUCCCUUGGCAGCGGAUCGAGUGAUGUUCGUAAGCUCAUU [AK4 SS Theophylline A] | 0.464 | 0.456 | 0.583 | 0.521 | 0.502
27 | UUAGUAUAGAGAGGAUAUACCUUCCAGUGAUGUUGGAUAGAUGAAUUUAAUCAUCAAGCAUAGCUUGUAGAAGGCUCUAUACAUU [AK1 SS FMN B] | 0.373 | 0.558 | 0.535 | 0.637 | 0.613
28 | UUAUAUAAUUUGUCUUUUUUAACAUUAAGUCAGGAUAUCGUAUAUUCGAGAAGGGACACAUGCUAGUGAUGUUAGCUAUUUCUUU [JR_ExcFMNA_Sub016] | 0.0317 | 0.0553 | 0.0304 | 0.043 | 0.0306
29 | UUAUAUUUCAGUGAUGUUGAAAAUAUAACAGAGGAUAUGCGUUUAAGCAGAAGGCUGAAAUACUAUACUUUAAUCUAUUAAAUUU [JR_Nu_SSFMNA_Sub027] | 0.195 | 0.356 | 0.35 | 0.353 | 0.323
30 | UUAUUGAGCGUUUGUGAGAAGGCGUUCUUCAAGGAUAUCGACGUAACGAGAAGGUGAUUCGUUCCGAGUGAUGUUCGGUACGGGC [theeternabot_sameState_KL_FMN_A_4] | 0.222 | 0.185 | 0.234 | 0.24 | 0.199
31 | UUCAGUGAUGUUGAACACUGUUGUAUAAACUAGGAUAUGCUGAUAAGCAGAAGGAGUGAUGUUCCGUUCAUCAUCAGAAUUAAAU [KL-XFMN-A3] | 0.673 | 0.4 | 0.359 | 0.424 | 0.25
32 | UUCUACGAGUGAUGUUCGUAGUGUAAUCGCUAGGAUAUCGUUUUUUCGAGAAGGAGCGUCGAAGUGAUACGAAAGUAUCGCUUCG [FMN A 13] | 0.151 | 0.258 | 0.3 | 0.284 | 0.284
